Laboratory results published in article PMC5973702.

Target: human voltage-gated K+ channel Kv1.3 with C-terminal FLAG/10Xhis tag, expressed in Tetrahymena thermophila (human) (UniProt P22001)
Experiment: fluorescence polarisation

Chain of UniProt P22001 (P22001 whole entry): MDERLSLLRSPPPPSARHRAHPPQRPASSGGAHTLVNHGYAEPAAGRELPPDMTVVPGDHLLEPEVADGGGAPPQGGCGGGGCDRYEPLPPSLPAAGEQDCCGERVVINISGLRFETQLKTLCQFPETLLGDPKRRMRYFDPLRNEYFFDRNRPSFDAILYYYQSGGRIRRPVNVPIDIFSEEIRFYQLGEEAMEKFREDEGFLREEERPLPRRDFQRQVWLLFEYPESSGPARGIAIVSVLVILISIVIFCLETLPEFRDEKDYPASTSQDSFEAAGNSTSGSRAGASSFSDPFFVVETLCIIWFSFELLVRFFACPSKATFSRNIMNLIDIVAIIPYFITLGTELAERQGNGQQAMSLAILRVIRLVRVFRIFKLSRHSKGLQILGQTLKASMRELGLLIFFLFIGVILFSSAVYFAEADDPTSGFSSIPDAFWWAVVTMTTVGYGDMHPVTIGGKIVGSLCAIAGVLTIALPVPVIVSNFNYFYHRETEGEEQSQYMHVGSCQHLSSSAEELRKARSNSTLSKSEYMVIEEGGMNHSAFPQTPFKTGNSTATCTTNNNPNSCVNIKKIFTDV

Q: With “FAM-ShK (Fluorescein 6-carbonyl-labelled Stichodactyla toxin) (peptide)” as the substance, how does the Kd read?
A: The Kd was 11.5 nM.
